# Data reported in PMC3686486.
# Experiments:
# [1] = molecular target: Bacillus thuringiensis subsp. israelensis Cry11Aa toxin (Bacillus thuringiensis subsp. israelensis) (UniProt P21256); assay: ELISA
# [2] = molecular target: Bacillus thuringiensis subsp. israelensis Cry4Ba toxin (Bacillus thuringiensis subsp. israelensis); assay: ELISA
# [3] = molecular target: Bacillus thuringiensis subsp. israelensis Cry11Aa toxin (Bacillus thuringiensis subsp. israelensis) (UniProt P21256); assay: SPR
# [4] = molecular target: Bacillus thuringiensis subsp. israelensis Cry4Ba toxin (Bacillus thuringiensis subsp. israelensis); assay: SPR
# Sequence of Bacillus thuringiensis subsp. israelensis Cry4Ba toxin (Bacillus thuringiensis subsp. israelensis) (P05519 whole entry): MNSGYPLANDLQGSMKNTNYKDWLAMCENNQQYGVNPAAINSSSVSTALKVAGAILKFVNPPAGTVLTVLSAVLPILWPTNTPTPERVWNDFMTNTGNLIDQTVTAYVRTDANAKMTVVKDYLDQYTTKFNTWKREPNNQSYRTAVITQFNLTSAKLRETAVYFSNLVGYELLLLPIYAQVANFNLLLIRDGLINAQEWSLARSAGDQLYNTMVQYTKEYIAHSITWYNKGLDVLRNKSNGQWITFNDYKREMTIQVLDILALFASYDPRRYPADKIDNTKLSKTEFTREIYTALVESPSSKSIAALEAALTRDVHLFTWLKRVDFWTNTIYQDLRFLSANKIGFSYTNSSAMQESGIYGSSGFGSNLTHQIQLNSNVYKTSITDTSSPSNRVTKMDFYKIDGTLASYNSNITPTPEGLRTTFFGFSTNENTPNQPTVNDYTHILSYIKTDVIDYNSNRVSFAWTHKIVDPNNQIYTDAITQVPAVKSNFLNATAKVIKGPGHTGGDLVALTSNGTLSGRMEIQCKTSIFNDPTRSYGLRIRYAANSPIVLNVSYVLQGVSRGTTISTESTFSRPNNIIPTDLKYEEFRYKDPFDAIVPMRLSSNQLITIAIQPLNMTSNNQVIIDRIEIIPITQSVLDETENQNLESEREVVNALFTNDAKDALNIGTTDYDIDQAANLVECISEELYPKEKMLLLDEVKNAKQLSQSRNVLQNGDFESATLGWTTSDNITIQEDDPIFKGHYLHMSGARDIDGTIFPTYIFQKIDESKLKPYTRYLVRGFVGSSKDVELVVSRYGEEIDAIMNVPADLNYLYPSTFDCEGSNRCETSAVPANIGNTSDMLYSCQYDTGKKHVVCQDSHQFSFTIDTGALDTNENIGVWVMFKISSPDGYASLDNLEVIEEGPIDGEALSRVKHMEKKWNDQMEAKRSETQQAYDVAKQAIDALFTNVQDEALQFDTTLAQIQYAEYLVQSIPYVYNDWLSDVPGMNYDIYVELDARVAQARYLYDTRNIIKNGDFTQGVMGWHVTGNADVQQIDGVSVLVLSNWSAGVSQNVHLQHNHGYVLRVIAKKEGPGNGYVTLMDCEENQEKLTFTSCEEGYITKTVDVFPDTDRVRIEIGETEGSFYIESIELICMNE
substance,measurement,setting,value
Aedes aegypti cadherin receptor fragment CR7–11 (cadherin repeats 7–11) (domain or fragment),Kd,[1],14.8 nM
same,Kd,[2],135 nM
same,koff,[3],0.00252 s⁻¹
same,Kd,[4],154 nM
same,koff,[4],0.00203 s⁻¹
